Where “and” joins values, the source holds several entries; their conditions need not be identical. Identical values can stand only once.
Target: the molecule itself
Experiment: cryo-EM structure

B1: Mycobacterium tuberculosis encapsulin shell protein (Enctb) (natural protein)
chain: MNNLYRDLAPVTEAAWAEIELEAARTFKRHIAGRRVVDVSDPGGPVTAAVSTGRLIDVKAPTNGVIAHLRASKPLVRLRVPFTLSRNEIDDVERGSKDSDWEPVKEAAKKLAFVEDRTIFEGYSAASIEGIRSASSNPALTLPEDPREIPDVISQALSELRLAGVDGPYSVLLSADVYTKVSETSDHGYPIREHLNRLVDGDIIWAPAIDGAFVLTTRGGDFDLQLGTDVAIGYASHDTDTVRLYLQETLTFLCYTAEASVALSH
notes: also called Rv0798c; copies: 60
stoichiometry N: 60 and 48 and 52 and 54

Source: paper PMC11830004, “In situ and in vitro cryo-EM reveal structures of mycobacterial encapsulin assembly intermediates” (Communications Biology, 2025)
